The chains are these.
B1: OVA-FLIPr fusion protein (other)
chain: MGSIGAASMEFCFDVFKELKVHHANENIFYCPIAIMSALAMVYLGAKDSTRTQINKVVRFDKLPGFGDSIEAQCGTSVNVHSSLRDILNQITKPNDVYSFSLASRLYAEERYPILPEYLQCVKELYRGGLEPINFQTAADQARELINSWVESQTNGIIRNVLQPSSVDSQTAMVLVNAIVFKGLWEKAFKDEDTQAMPFRVTEQESKPVQMMYQIGLFRVASMASEKMKILELPFASGTMSMLVLLPDEVSGLEQLESIINFEKLTEWTSSNVMEERKIKVYLPRMKMEEKYNLTSVLMAMGITDVFSSSANLSGISSAESLKISQAVHAAHAEINEAGREVVGSAEAGVDAASVSEEFRADHPFLFCIKHIATNAVLFFGRCVSPGGGGSGGGGSGGGGSFFSYEWKGLEIAKNLADQAKKDDERIDKLMKESDKNLTPYKAETVNDLYLIVKKLSQGDVKKAVVRIKDGGPRDYYTFDLTRPLEENRKNIKVVKNGEIDSIYWDLEHHHHHH
notes: Expressed in E. coli from pET-22b(+) and purified by IMAC; also called recombinant OVA-FLIPr fusion protein
B2: biotin-conjugated recombinant FcγRIIa-H131 (receptor)
chain: AAPPKAVLKLEPPWINVLQEDSVTLTCQGARSPESDSIQWFHNGNLIPTHTQPSYRFKANNNDSGEYTCQTGQTSLSDPVHLTVLSEWLVLQTPHLEFQEGETIMLRCHSWKDKPLVKVTFFQNGKSQKFSHLDPTFSIPQANHSHSGDYHCTGNIGYTLFSSKPVTITVQVPSMGSSSPMGI
modifications: biotin-conjugated
notes: The H131 allotype name implies the human receptor
B3: biotin-conjugated recombinant FcγRIIb (receptor)
chain: APPKAVLKLEPQWINVLQEDSVTLTCRGTHSPESDSIQWFHNGNLIPTHTQPSYRFKANNNDSGEYTCQTGQTSLSDPVHLTVLSEWLVLQTPHLEFQEGETIVLRCHSWKDKPLVKVTFFQNGKSKKFSRSDPNFSIPQANHSHSGDYHCTGNIGYTLYSSKPVTITVQAP
modifications: biotin-conjugated
B4: OVA-FLIPr-like fusion protein (other)
chain: MGSIGAASMEFCFDVFKELKVHHANENIFYCPIAIMSALAMVYLGAKDSTRTQINKVVRFDKLPGFGDSIEAQCGTSVNVHSSLRDILNQITKPNDVYSFSLASRLYAEERYPILPEYLQCVKELYRGGLEPINFQTAADQARELINSWVESQTNGIIRNVLQPSSVDSQTAMVLVNAIVFKGLWEKAFKDEDTQAMPFRVTEQESKPVQMMYQIGLFRVASMASEKMKILELPFASGTMSMLVLLPDEVSGLEQLESIINFEKLTEWTSSNVMEERKIKVYLPRMKMEEKYNLTSVLMAMGITDVFSSSANLSGISSAESLKISQAVHAAHAEINEAGREVVGSAEAGVDAASVSEEFRADHPFLFCIKHIATNAVLFFGRCVSPGGGGSGGGGSGGGGSFFSYEWKGLEIAKNLADQAKKDDERADKLIKEADEKNEHYKGKTVEDLYVIAKKMGKGNTIAVVKIKDGGKNGYYTFDITRPLEEHRKNIPVVKNGEIDSITWYLEHHHHHH
notes: Expressed in E. coli from pET-22b(+) and purified by IMAC; also called recombinant OVA-FLIPr-like fusion protein
B5: biotin-conjugated recombinant FcγRI (receptor)
chain: QVDTTKAVITLQPPWVSVFQEETVTLHCEVLHLPGSSSTQWFLNGTATQTSTPSYRITSASVNDSGEYRCQRGLSGRSDPIQLEIHRGWLLLQVSSRVFTEGEPLALRCHAWKDKLVYNVLYYRNGKAFKFFHWNSNLTILKTNISHNGTYHCSGMGKHRYTSAGISVTVKELFPAPVLNASVTSPLLEGNLVTLSCETKLLLQRPGLQLYFSFYMGSKTLRGRNTSSEYQILTARREDSGLYWCEAATEDGNVLKRSPELELQVLGLQLPTP
modifications: biotin-conjugated

Assay [1] addresses T1, biotin-conjugated recombinant FcγRIIIa-V158 (UniProt P08637 17-208).
T1 construct: The V158 allotype name implies the human receptor
As to the kind of experiment: ELISA, coated fusion protein, biotin-conjugated FcγR in solution.

In assay [2] the target is B2. The assay is described as above.
Assay [3] deals with T2, biotin-conjugated recombinant FcγRIIIa-F158 (UniProt P08637 17-208, biotin-conjugated).
T2 construct: The F158 allotype name implies the human receptor
T2 sequence (P08637 17-208 limits assumed): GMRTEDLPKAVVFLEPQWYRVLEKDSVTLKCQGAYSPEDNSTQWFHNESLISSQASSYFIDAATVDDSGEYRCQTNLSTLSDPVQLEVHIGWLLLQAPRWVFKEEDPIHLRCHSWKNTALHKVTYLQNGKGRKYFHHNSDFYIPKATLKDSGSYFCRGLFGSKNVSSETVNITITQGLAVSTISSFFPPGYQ
The assay is described as above.

The target in assay [4] is T3, recombinant ovalbumin (OVA) (Gallus gallus (Chicken), UniProt P01012 1-386).
T3 sequence: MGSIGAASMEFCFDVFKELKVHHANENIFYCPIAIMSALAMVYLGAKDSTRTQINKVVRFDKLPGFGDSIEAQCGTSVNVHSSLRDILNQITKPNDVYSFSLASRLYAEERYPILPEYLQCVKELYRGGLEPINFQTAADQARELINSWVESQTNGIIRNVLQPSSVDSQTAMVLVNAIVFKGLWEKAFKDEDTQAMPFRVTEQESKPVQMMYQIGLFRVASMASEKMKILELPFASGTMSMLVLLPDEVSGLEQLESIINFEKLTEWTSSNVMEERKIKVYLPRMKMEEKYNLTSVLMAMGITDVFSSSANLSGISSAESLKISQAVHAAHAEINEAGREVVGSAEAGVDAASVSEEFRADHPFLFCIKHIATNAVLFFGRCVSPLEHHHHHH
As to the kind of experiment: ELISA, plate coated with recombinant protein at 1 µg/mL, serial dilution of biotin-conjugated FcγR, streptavidin-HRP. In general terms: ELISA stands for enzyme-linked immunosorbent assay.

We go through five molecules from patent publication US20190321456A1 (NATIONAL HEALTH RESEARCH INSTITUTES, published 2019).

T1 sequence (P08637 17-208 F176V limits assumed): as the sequence (P08637 17-208 limits assumed) above, with F160V counted along it

Take B1: the binding result in assay [1], in assay [2] and in assay [3] was “binds” throughout.
For the molecule B2, the binding result in assay [4] is “no binding”.
Same read-out and setting: then B3, with “no binding”.
Consider B4, for which the binding result in assay [1], in assay [2] and in assay [3] was “binds” each time.
Take B5: in assay [4], the binding result is “no binding”.
